Columns and labels:
[1] = molecular target: QCR2_HUMAN Cytochrome b-c1 complex subunit 2, mitochondrial (human) (UniProt P22695); assay: anti-SMARCA4 (BRG1) IP, mass spectrometry, human fibroblasts
[2] = molecular target: TNR6B_HUMAN Trinucleotide repeat-containing gene 6B protein (human) (UniProt Q9UPQ9); assay: as above
[3] = molecular target: TRA2B_HUMAN Transformer-2 protein homolog beta (human) (UniProt P62995); assay: as above
[4] = molecular target: UBC_HUMAN Polyubiquitin-C (human) (UniProt P0CG48); assay: as above
[5] = molecular target: UBP2L_HUMAN Isoform 5 of Ubiquitin-associated protein 2-like (human) (UniProt Q14157); assay: as above
[6] = molecular target: UCRIL HUMAN Putative cytochrome b-c1 complex subunit Rieske-like protein 1 (human) (UniProt P0C7P4); assay: as above
[7] = molecular target: URB2_HUMAN Unhealthy ribosome biogenesis protein 2 homolog (human) (UniProt Q14146); assay: as above
[8] = molecular target: VIME_HUMAN Vimentin (human) (UniProt P08670); assay: as above
[9] = molecular target: XRN2_HUMAN 5'-3' exoribonuclease 2 (human) (UniProt Q9H0D6); assay: as above
[10] = molecular target: YLPM1_HUMAN Isoform 4 of YLP motif-containing protein 1 (human) (UniProt P49750); assay: as above
[11] = molecular target: ZC11A_HUMAN Zinc finger CCCH domain-containing protein 11A (human) (UniProt O75152); assay: as above
[12] = molecular target: ZN326_HUMAN DBIRD complex subunit ZNF326 (human) (UniProt Q5BKZ1); assay: as above
[13] = molecular target: ACL6A_HUMAN Actin-like protein 6A (human) (UniProt O96019); assay: MS of BAF complexes from Aska-SS cells, shControl against shSS18-SSX, Rep 1
[14] = molecular target: ARI1B_HUMAN Isoform 3 of AT-rich interactive domain-containing protein 1B (human) (UniProt Q8NFD5); assay: as above
BCL7B (human) [15] = molecular target: BCL7B (human) (UniProt Q9BQE9); assay: as above
[16] = molecular target: BCL7C_HUMAN Isoform 2 of B-cell CLL/lymphoma 7 protein family member C (human) (UniProt Q8WUZ0); assay: as above
[17] = molecular target: SMCE1_HUMAN SWI/SNF-related matrix-associated actin-dependent regulator of chromatin subfamily E member 1 (human) (UniProt Q969G3); assay: as above
[18] = molecular target: SMRC1_HUMAN SWI/SNF complex subunit SMARCC1 (human) (UniProt Q92922); assay: as above
[19] = molecular target: SMRD1_HUMAN SWI/SNF-related matrix-associated actin-dependent regulator of chromatin subfamily D member 1 (human) (UniProt Q96GM5); assay: as above
[20] = molecular target: SNF5_HUMAN Isoform B of SWI/SNF-related matrix-associated actin-dependent regulator of chromatin subfamily B member 1 (human) (UniProt Q12824); assay: as above
SSX1; SSX8 (human) = SSX1; SSX8 (human) (UniProt Q16384); assay: as above
[21] = molecular target: SSXT_HUMAN Protein SSXT (human) (UniProt Q15532); assay: as above
[22] = molecular target: ARI1B_HUMAN Isoform 3 of AT-rich interactive domain-containing protein 1B (human) (UniProt Q8NFD5); assay: MS of BAF complexes from Aska-SS cells, shControl against shSS18-SSX, Rep 2
BCL7B (human) [23] = molecular target: BCL7B (human) (UniProt Q9BQE9); assay: as above
[24] = molecular target: BCL7C_HUMAN Isoform 2 of B-cell CLL/lymphoma 7 protein family member C (human) (UniProt Q8WUZ0); assay: as above
[25] = molecular target: SMCE1_HUMAN SWI/SNF-related matrix-associated actin-dependent regulator of chromatin subfamily E member 1 (human) (UniProt Q969G3); assay: as above
[26] = molecular target: SSXT_HUMAN Protein SSXT (human) (UniProt Q15532); assay: as above

Substance: SMCA4_HUMAN Transcription activator BRG1 (from UniProt P51532 1-1647) (enzyme)
- NSAF [1]: 0.00014
- NSAF [2]: 6.92e-05
- NSAF [3]: 0.00022
- NSAF [4]: 9.25e-05
- NSAF [5]: 5.74e-05
- NSAF [6]: 0.000224
- NSAF [7]: 0
- NSAF [8]: 0.000136
- NSAF [9]: 0
- NSAF [10]: 0.000266
- NSAF [11]: 0
- NSAF [12]: 0
- LFQ intensity ratio Aska (shControl)/Aska (shSS18-SSX), norm to SMARCA4 [13]: 0.784
- LFQ intensity ratio Aska (shControl)/Aska (shSS18-SSX), norm to SMARCA4 [14]: 0.721
- LFQ intensity ratio Aska (shControl)/Aska (shSS18-SSX), norm to SMARCA4 (BCL7B (human) [15]): 1.34
- LFQ intensity ratio Aska (shControl)/Aska (shSS18-SSX), norm to SMARCA4 [16]: 1.74
- LFQ intensity ratio Aska (shControl)/Aska (shSS18-SSX), norm to SMARCA4 [17]: 0.894
- LFQ intensity ratio Aska (shControl)/Aska (shSS18-SSX), norm to SMARCA4 [18]: 0.506
- LFQ intensity ratio Aska (shControl)/Aska (shSS18-SSX), norm to SMARCA4 [19]: 0.771
- LFQ intensity ratio Aska (shControl)/Aska (shSS18-SSX), norm to SMARCA4 [20]: 0.0221
- LFQ intensity ratio Aska (shControl)/Aska (shSS18-SSX), norm to SMARCA4 (SSX1; SSX8 (human)): 8.69
- LFQ intensity ratio Aska (shControl)/Aska (shSS18-SSX), norm to SMARCA4 [21]: 0.959
- LFQ intensity ratio Aska (shControl)/Aska (shSS18-SSX), norm to SMARCA4 [22]: 0.65
- LFQ intensity ratio Aska (shControl)/Aska (shSS18-SSX), norm to SMARCA4 (BCL7B (human) [23]): 1.13
- LFQ intensity ratio Aska (shControl)/Aska (shSS18-SSX), norm to SMARCA4 [24]: 1.54
- LFQ intensity ratio Aska (shControl)/Aska (shSS18-SSX), norm to SMARCA4 [25]: 0.855
- LFQ intensity ratio Aska (shControl)/Aska (shSS18-SSX), norm to SMARCA4 [26]: 1.26

Reference: patent US20250283871A1, “COMPOSITIONS AND METHODS FOR MODULATING THE INTERACTION BETWEEN SS18-SSX FUSION ONCOPROTEIN AND NUCLEOSOMES” (Dana-Farber Cancer Institute, Inc., priority 2020, published 2025)
